Here are results for one molecule from patent US20210128704A1 (UNIVERSITY OF MIAMI, published 2021).

The target of this assay is T1, ITPR1 (inositol 1,4,5-trisphosphate receptor type 1) (UniProt Q14643 1-2758, limits assumed).
T1 construct: Endogenous protein of the transfected cells, tested by co-immunoprecipitation and western blot
Nature of the assay: co-immunoprecipitation with antibodies to the tag and western blot, HEK293 cells before and after forskolin. The source says:
Overexpression of V5-Car10 and V5-CA10 inhibits ATP-induced free calcium release in vitro: ITPR1 contains functionally distinct domains, including the ‘modulatory’ domain responding to intracellular modulators such as calcium, calmodulin, ATP, and carbonic anhydrase-8 (Car8). ATP increases ITPR1-dependent calcium release by increasing the open probability of the channel in the presence of activating concentrations of IP3 and calcium. It is believed that Car8-mediated inhibition of ITPR1 activation and ATP-mediated calcium release requires binding to this modulatory domain. […] Co-immunoprecipitation of each protein with antibodies to V5 tag with ITPR1 and pITPR1 before and after forskolin stimulation of HEK293 cells was conducted.

T1 sequence (Q14643 whole entry): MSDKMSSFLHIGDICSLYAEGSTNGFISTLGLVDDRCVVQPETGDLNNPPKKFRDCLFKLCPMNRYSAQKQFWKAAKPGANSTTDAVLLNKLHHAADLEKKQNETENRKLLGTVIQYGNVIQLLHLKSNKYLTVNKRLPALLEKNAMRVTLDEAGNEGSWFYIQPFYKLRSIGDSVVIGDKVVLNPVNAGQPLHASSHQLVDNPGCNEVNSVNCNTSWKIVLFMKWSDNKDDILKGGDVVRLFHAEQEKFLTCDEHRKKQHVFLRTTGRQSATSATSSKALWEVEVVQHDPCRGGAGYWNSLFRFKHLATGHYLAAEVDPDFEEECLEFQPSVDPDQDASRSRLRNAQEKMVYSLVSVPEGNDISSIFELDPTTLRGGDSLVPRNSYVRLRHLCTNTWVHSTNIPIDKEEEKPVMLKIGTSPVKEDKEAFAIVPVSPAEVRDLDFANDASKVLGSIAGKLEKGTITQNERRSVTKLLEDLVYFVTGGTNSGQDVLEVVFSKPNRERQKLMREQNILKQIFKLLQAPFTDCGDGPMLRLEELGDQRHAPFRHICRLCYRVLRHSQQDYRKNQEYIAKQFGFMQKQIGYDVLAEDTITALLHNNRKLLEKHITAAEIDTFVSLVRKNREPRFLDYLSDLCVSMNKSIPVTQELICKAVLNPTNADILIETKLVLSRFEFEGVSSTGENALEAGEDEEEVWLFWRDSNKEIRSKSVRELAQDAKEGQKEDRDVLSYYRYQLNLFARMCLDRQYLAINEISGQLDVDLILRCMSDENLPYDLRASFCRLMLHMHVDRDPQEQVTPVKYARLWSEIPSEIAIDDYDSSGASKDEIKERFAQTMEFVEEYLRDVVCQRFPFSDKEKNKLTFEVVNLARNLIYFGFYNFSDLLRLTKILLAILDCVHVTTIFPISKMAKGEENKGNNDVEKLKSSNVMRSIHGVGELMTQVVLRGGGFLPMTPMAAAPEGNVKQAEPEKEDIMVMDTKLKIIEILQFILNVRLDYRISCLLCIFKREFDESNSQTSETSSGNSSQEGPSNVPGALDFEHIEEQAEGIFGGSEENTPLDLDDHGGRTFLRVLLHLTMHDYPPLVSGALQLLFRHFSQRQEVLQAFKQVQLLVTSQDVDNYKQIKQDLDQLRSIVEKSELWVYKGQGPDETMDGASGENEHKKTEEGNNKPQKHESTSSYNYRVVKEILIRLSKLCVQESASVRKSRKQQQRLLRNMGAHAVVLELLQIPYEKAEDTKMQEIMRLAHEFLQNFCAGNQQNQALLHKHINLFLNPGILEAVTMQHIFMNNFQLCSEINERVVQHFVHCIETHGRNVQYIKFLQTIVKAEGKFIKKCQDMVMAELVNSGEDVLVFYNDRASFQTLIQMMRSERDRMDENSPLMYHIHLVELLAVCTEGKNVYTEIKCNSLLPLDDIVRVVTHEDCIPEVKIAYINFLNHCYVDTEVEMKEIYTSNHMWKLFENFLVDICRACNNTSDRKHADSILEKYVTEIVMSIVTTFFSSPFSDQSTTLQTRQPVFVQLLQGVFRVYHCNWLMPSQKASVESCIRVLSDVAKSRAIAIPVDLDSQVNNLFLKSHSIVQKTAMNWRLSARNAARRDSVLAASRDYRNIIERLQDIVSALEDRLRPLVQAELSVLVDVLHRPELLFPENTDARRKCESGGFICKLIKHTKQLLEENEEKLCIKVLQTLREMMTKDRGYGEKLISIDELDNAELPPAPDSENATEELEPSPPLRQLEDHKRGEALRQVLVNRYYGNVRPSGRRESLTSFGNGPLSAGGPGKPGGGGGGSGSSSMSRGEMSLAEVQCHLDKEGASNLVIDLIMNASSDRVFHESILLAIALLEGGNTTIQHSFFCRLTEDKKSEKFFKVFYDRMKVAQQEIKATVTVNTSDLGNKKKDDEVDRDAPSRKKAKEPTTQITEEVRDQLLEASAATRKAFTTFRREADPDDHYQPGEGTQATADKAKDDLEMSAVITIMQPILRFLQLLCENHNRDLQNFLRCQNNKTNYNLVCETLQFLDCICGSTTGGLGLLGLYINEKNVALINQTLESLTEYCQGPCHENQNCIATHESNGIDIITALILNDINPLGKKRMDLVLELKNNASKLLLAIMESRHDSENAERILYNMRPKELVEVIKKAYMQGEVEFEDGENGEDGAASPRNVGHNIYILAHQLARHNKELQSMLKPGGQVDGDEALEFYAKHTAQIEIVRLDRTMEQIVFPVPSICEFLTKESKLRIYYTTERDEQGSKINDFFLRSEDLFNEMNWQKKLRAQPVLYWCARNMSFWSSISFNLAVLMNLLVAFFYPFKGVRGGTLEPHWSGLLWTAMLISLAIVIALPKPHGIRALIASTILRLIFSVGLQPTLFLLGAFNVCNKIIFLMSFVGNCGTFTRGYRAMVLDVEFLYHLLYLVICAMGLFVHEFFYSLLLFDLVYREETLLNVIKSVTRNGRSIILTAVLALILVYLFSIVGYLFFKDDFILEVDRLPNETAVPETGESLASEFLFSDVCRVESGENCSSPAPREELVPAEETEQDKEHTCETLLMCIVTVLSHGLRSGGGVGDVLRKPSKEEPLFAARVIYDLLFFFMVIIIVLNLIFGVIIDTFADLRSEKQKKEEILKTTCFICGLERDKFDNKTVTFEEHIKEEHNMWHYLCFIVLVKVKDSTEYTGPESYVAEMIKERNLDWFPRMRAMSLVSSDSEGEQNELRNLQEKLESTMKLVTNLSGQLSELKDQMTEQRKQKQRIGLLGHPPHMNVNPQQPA

B1: CA8-204 (carbonic anhydrase 8 fragment, alternative transcript product) (other, not shown: small tags and cut ends)
chain: MADLSFIEDTVAFPEKEEDEEEEEEGVEWGYEEGVEWGLVFPDANGEYQSPINLNSREARYDPSLLDVRLSPNYVVCRDCEVTNDGHTIQVILKSKSVLSGGPLPQGHEFELYEVRFHWGRENQRGSEHTVNFKAFPMEVRITNHLVKILFSE
notes: Expressed in HEK293 cells; also called CA8 fragment
In the case of B1, the binding result is “no binding”.
